Measurements: paper PMC7655802, “Antibiotic-induced DNA damage results in a controlled loss of pH homeostasis and genome instability”

Tests used:
[1] = biological target: T1, RecA (UniProt P0A7G6 2-353); test: stopped-flow fluorescence; pH 5; 1 mM ATP, 10 mM Mg2+; binds in less than 1 s; EMSA: 50 mM phosphate/citrate pH 5-8, 50 mM NaCl, 10 mM MgCl2, 1 mM ATP, 25 C, 5 min, then 0.125% glutaraldehyde; stopped-flow: 20 nM dT79, 1 mM ATP, 10 mM MgCl2; details: protein: commercial; label: 5'-Cy3; single strand
T1 sequence (P0A7G6 2-353): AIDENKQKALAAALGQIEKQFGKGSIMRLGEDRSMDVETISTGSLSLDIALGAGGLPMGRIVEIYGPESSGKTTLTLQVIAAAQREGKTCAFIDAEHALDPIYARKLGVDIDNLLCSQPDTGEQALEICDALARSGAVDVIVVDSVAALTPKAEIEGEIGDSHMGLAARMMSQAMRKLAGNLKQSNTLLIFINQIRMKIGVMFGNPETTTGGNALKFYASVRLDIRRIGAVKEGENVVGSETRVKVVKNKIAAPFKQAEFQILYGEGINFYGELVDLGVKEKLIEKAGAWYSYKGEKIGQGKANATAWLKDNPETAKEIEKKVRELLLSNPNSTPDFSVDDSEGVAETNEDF

[2] = biological target: T1, RecA; test: EMSA (glutaraldehyde-fixed); pH 5; 1 mM ATP, 10 mM Mg2+; EMSA: 50 mM phosphate/citrate pH 5-8, 50 mM NaCl, 10 mM MgCl2, 1 mM ATP, 25 C, 5 min, then 0.125% glutaraldehyde; stopped-flow: 20 nM dT79, 1 mM ATP, 10 mM MgCl2; details: protein: commercial; label: 5'-FITC; single strand

B1: dT79 (ssDNA)
DNA: TTTTTTTTTTTTTTTTTTTTTTTTTTTTTTTTTTTTTTTTTTTTTTTTTTTTTTTTTTTTTTTTTTTTTTTTTTTTTTT
[1]
  binding result: binds

B2: 90mer oligonucleotide (ssDNA)
DNA: AAATCAATCTAAAGTATATATGAGTAAACTTGGTCTGACAGTTACCAATGCTTAATCAGTGAGGCACCTATCTCAGCGATCTGTCTATTT
[2]
  binding signal: ~10 fold higher affinity at pH 5 than at pH 8
